These results are taken from PMC8117670 (Science (New York, N.Y.), 2021).

Common to all, as to assay: cryo-EM structure
Experiment [1] deals with Med14 (human, UniProt O60244 1-1454).
For experiment [2], the target named is Med1 (human, UniProt Q15648 1-1581).
Experiment [3] deals with RPB1, the largest subunit of RNA polymerase II (human, UniProt P24928 1-1970).
Experiment [4] deals with T1, Med23 (human, UniProt Q9ULK4 1-1368).
T1 sequence: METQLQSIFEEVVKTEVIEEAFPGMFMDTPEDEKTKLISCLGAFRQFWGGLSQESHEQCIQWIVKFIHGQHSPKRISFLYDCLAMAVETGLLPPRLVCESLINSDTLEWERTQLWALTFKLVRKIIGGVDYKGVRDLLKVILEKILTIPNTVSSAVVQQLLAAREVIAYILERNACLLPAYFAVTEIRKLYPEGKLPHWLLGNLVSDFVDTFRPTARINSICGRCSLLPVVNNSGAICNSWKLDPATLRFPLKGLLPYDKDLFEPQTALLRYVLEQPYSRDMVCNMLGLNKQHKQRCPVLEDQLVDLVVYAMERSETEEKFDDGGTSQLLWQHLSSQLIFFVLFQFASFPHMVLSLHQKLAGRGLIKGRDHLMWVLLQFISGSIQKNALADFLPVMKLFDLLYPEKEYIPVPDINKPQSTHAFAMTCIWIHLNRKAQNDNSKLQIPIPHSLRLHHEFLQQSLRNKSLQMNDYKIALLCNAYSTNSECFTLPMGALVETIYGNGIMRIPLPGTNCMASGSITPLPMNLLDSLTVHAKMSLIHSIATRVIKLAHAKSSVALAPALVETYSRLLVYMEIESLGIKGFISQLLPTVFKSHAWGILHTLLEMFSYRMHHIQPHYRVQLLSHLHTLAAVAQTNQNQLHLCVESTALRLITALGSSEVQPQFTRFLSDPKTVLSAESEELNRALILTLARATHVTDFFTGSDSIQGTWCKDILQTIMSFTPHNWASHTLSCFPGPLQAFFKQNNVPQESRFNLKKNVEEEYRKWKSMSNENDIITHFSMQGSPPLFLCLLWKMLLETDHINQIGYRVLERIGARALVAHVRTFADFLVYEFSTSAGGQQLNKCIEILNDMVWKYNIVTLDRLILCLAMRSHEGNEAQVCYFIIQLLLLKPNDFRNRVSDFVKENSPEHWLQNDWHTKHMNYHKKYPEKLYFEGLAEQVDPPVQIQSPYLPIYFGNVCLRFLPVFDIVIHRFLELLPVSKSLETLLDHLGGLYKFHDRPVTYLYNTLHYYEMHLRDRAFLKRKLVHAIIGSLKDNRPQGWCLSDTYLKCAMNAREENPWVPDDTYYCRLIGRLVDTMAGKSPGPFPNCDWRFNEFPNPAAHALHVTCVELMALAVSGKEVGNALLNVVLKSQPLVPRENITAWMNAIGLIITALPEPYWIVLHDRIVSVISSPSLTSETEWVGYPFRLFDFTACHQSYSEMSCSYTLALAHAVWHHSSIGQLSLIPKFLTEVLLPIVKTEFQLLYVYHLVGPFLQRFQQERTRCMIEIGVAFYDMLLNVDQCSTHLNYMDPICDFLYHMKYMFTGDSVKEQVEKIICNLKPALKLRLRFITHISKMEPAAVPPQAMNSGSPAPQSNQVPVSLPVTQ

Med1, sequence (Q15648 whole entry): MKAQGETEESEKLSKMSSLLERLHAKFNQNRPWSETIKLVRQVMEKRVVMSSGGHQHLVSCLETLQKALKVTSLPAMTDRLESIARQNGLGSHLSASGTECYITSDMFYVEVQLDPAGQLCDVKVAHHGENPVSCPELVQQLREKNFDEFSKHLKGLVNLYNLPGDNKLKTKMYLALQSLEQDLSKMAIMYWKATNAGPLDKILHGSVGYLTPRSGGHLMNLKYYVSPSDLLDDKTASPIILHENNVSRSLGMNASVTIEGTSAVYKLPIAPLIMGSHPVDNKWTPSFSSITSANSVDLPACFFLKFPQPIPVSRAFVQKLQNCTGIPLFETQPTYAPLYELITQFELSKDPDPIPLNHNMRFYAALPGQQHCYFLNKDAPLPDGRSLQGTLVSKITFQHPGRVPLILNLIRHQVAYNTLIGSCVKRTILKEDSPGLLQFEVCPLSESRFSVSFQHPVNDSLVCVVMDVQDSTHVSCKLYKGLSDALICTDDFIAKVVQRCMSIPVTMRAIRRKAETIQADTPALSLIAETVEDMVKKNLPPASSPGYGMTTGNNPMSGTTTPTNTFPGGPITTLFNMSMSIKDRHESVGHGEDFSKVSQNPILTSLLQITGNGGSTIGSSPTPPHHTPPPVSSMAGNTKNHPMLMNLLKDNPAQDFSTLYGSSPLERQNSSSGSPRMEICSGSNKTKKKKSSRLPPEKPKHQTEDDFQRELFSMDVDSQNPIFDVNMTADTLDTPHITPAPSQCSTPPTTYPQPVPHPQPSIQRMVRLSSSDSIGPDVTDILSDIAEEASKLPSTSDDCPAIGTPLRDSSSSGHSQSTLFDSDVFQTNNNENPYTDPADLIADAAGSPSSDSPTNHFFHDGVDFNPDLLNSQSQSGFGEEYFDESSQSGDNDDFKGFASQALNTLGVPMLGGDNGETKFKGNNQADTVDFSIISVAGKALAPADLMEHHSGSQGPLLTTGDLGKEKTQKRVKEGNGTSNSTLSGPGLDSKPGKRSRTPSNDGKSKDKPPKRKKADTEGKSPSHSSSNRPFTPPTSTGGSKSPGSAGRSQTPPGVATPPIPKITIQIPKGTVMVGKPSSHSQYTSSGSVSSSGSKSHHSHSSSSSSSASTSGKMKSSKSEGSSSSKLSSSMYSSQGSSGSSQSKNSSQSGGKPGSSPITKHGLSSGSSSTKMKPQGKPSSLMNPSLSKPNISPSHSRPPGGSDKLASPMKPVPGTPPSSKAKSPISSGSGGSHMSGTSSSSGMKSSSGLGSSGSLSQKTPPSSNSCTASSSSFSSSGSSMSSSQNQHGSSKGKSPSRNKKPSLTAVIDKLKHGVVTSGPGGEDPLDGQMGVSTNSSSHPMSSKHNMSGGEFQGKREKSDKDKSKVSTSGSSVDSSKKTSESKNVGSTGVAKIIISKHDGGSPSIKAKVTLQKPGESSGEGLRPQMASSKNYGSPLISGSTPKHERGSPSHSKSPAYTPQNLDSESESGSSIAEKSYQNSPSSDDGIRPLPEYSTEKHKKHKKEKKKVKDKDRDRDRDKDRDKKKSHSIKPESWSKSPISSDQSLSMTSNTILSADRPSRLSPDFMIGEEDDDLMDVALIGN
Med14, sequence (O60244 whole entry): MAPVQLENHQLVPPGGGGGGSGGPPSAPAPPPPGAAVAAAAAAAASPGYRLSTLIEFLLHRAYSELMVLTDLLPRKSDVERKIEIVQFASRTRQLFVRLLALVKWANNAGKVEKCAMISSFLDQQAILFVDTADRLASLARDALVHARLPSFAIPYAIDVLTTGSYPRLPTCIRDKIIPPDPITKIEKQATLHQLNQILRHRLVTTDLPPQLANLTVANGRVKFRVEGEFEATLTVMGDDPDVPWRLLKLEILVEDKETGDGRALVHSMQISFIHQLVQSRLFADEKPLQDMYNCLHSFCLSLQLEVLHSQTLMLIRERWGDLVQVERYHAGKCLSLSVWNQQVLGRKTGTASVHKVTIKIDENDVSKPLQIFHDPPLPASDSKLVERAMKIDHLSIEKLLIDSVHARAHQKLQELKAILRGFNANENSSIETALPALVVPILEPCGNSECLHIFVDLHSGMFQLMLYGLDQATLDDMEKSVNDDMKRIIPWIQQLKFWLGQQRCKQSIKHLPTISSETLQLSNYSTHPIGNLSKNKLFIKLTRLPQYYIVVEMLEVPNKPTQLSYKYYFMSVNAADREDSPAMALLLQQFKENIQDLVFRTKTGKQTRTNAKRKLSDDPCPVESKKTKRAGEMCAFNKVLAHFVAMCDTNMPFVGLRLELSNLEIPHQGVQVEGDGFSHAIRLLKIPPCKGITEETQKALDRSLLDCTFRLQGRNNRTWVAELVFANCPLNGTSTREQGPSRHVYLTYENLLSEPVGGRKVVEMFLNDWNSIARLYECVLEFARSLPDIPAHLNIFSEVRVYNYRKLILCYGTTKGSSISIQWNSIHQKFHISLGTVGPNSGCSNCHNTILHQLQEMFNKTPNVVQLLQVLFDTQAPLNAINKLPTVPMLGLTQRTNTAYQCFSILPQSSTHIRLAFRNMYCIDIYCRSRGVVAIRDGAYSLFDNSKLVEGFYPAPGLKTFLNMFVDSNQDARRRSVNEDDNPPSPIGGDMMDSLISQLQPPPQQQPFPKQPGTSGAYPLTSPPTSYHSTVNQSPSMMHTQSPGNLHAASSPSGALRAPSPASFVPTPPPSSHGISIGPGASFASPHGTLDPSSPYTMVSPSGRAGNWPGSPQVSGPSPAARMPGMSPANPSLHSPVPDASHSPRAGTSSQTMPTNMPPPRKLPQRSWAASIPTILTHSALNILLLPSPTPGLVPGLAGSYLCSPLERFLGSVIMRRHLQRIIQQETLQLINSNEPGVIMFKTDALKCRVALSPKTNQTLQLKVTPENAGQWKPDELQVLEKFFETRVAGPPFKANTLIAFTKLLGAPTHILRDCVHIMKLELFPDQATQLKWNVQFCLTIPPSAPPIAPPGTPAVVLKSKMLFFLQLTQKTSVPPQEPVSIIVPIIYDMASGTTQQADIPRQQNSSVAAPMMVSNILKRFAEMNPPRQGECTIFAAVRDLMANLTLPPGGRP

B1: Med17 (natural protein, human)
chain: MSGVRAVRISIESACEKQVHEVGLDGTETYLPPLSMSQNLARLAQRIDFSQGSGSEEEEAAGTEGDAQEWPGAGSSADQDDEEGVVKFQPSLWPWDSVRNNLRSALTEMCVLYDVLSIVRDKKFMTLDPVSQDALPPKQNPQTLQLISKKKSLAGAAQILLKGAERLTKSVTENQENKLQRDFNSELLRLRQHWKLRKVGDKILGDLSYRSAGSLFPHHGTFEVIKNTDLDLDKKIPEDYCPLDVQIPSDLEGSAYIKVSIQKQAPDIGDLGTVNLFKRPLPKSKPGSPHWQTKLEAAQNVLLCKEIFAQLSREAVQIKSQVPHIVVKNQIISQPFPSLQLSISLCHSSNDKKSQKFATEKQCPEDHLYVLEHNLHLLIREFHKQTLSSIMMPHPASAPFGHKRMRLSGPQAFDKNEINSLQSSEGLLEKIIKQAKHIFLRSRAAATIDSLASRIEDPQIQAHWSNINDVYESSVKVLITSQGYEQICKSIQLQLNIGVEQIRVVHRDGRVITLSYQEQELQDFLLSQMSQHQVHAVQQLAKVMGWQVLSFSNHVGLGPIESIGNASAITVASPSGDYAISVRNGPESGSKIMVQFPRNQCKDLPKSDVLQDNKWSHLRGPFKEVQWNKMEGRNFVYKMELLMSALSPCLL
For B1, the binding result in experiment [1] is given as “binds”.

B2: Med9 (natural protein, human)
chain: MASAGVAAGRQAEDVLPPTSDQPLPDTKPLPPPQPPPVPAPQPQQSPAPRPQSPARAREEENYSFLPLVHNIIKCMDKDSPEVHQDLNALKSKFQEMRKLISTMPGIHLSPEQQQQQLQSLREQVRTKNELLQKYKSLCMFEIPKE
Consider B2, for which, in experiment [2], the binding result is “binds”.

B3: Med4 (natural protein, human)
chain: MAASSSGEKEKERLGGGLGVAGGNSTRERLLSALEDLEVLSRELIEMLAISRNQKLLQAGEENQVLELLIHRDGEFQELMKLALNQGKIHHEMQVLEKEVEKRDSDIQQLQKQLKEAEQILATAVYQAKEKLKSIEKARKGAISSEEIIKYAHRISASNAVCAPLTWVPGDPRRPYPTDLEMRSGLLGQMNNPSTNGVNGHLPGDALAAGRLPDVLAPQYPWQSNDMSMNMLPPNHSSDFLLEPPGHNKENEDDVEIMSTDSSSSSSESD
As to B3, the binding result in experiment [2] is listed as “binds”.

B4: Med31 (natural protein)
chain: MAAAVAMETDDAGNRLRFQLELEFVQCLANPNYLNFLAQRGYFKDKAFVNYLKYLLYWKDPEYAKYLKYPQCLHMLELLQYEHFRKELVNAQCAKFIDEQQILHWQHYSRKRMRLQQALAEQQQQNNTSGK
B4: the binding result in experiment [3] was “binds”.

B5: Med25 (natural protein, human)
chain: MVPGSEGPARAGSVVADVVFVIEGTANLGPYFEGLRKHYLLPAIEYFNGGPPAETDFGGDYGGTQYSLVVFNTVDCAPESYVQCHAPTSSAYEFVTWLDGIKFMGGGGESCSLIAEGLSTALQLFDDFKKMREQIGQTHRVCLLICNSPPYLLPAVESTTYSGCTTENLVQQIGERGIHFSIVSPRKLPALRLLFEKAAPPALLEPLQPPTDVSQDPRHMVLVRGLVLPVGGGSAPGPLQSKQPVPLPPAAPSGATLSAAPQQPLPPVPPQYQVPGNLSAAQVAAQNAVEAAKNQKAGLGPRFSPITPLQQAAPGVGPPFSQAPAPQLPPGPPGAPKPPPASQPSLVSTVAPGSGLAPTAQPGAPSMAGTVAPGGVSGPSPAQLGAPALGGQQSVSNKLLAWSGVLEWQEKPKPASVDANTKLTRSLPCQVYVNHGENLKTEQWPQKLIMQLIPQQLLTTLGPLFRNSRMVQFHFTNKDLESLKGLYRIMGNGFAGCVHFPHTAPCEVRVLMLLYSSKKKIFMGLIPYDQSGFVNGIRQVITNHKQVQQQKLEQQQRGMGGQQAPPGLGPILEDQARPSQNLLQLRPPQPQPQGTVGASGATGQPQPQGTAQPPPGAPQGPPGAASGPPPPGPILRPQNPGANPQLRSLLLNPPPPQTGVPPPQASLHHLQPPGAPALLPPPHQGLGQPQLGPPLLHPPPAQSWPAQLPPRAPLPGQMLLSGGPRGPVPQPGLQPSVMEDDILMDLI
Turning to B5, the binding result in experiment [4] is reported as “binds”.

B6: Med24 (natural protein, human)
chain: MKVVNLKQAILQAWKERWSDYQWAINMKKFFPKGATWDILNLADALLEQAMIGPSPNPLILSYLKYAISSQMVSYSSVLTAISKFDDFSRDLCVQALLDIMDMFCDRLSCHGKAEECIGLCRALLSALHWLLRCTAASAERLREGLEAGTPAAGEKQLAMCLQRLEKTLSSTKNRALLHIAKLEEASSWTAIEHSLLKLGEILANLSNPQLRSQAEQCGTLIRSIPTMLSVHAEQMHKTGFPTVHAVILLEGTMNLTGETQSLVEQLTMVKRMQHIPTPLFVLEIWKACFVGLIESPEGTEELKWTAFTFLKIPQVLVKLKKYSHGDKDFTEDVNCAFEFLLKLTPLLDKADQRCNCDCTNFLLQECGKQGLLSEASVNNLMAKRKADREHAPQQKSGENANIQPNIQLILRAEPTVTNILKTMDADHSKSPEGLLGVLGHMLSGKSLDLLLAAAAATGKLKSFARKFINLNEFTTYGSEESTKPASVRALLFDISFLMLCHVAQTYGSEVILSESRTGAEVPFFETWMQTCMPEEGKILNPDHPCFRPDSTKVESLVALLNNSSEMKLVQMKWHEACLSISAAILEILNAWENGVLAFESIQKITDNIKGKVCSLAVCAVAWLVAHVRMLGLDEREKSLQMIRQLAGPLFSENTLQFYNERVVIMNSILERMCADVLQQTATQIKFPSTGVDTMPYWNLLPPKRPIKEVLTDIFAKVLEKGWVDSRSIHIFDTLLHMGGVYWFCNNLIKELLKETRKEHTLRAVELLYSIFCLDMQQVTLVLLGHILPGLLTDSSKWHSLMDPPGTALAKLAVWCALSSYSSHKGQASTRQKKRHREDIEDYISLFPLDDVQPSKLMRLLSSNEDDANILSSPTDRSMSSSLSASQLHTVNMRDPLNRVLANLFLLISSILGSRTAGPHTQFVQWFMEECVDCLEQGGRGSVLQFMPFTTVSELVKVSAMSSPKVVLAITDLSLPLGRQVAAKAIAAL
For B6, the binding result in experiment [2] is on record as “binds”.
